The numbers were not newly measured in publication PMC4847942, which cites them from elsewhere.

Series [1] deals with Bcl-XL (Homo sapiens) (UniProt Q07817).
For series [2] the target is unchanged. The source holds these as a separate data set.

Where two headings read alike, the source gives them in different places.

Chain of UniProt Q07817 (Q07817 whole entry): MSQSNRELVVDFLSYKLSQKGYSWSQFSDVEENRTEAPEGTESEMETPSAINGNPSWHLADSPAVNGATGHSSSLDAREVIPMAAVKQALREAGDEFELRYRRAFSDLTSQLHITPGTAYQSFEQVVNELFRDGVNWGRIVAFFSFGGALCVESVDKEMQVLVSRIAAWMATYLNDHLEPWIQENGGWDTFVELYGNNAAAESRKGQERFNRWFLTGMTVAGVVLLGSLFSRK

For orientation: Kd means the equilibrium constant for the complex coming apart. As to “stapled Bid BH3 helix BH3 (from UniProt P55957)”, the Kd with Bcl-XL (Homo sapiens) [1] is 39 nM. As for Bid BH3 helix BH3 (from UniProt P55957), the dissociation constant Kd in the series with Bcl-XL (Homo sapiens) [2] was 269 nM.
